In patent US20220064312A1 (SHIONOGI, published 2022):
Where a chain is given by its changes, count along the chain named. Numbers in names are those of the source. Read-outs that look alike come from different tables or passages of the source. Each block holds one binder with its values, some of them ahead of it.

Assays:
human CCR8 [1] = biological target: T1, human CCR8 (human, UniProt P51685 1-355); assay: cell-based or functional assay
loop2 hCCR4-hCCR8 [2] = biological target: T2, loop2 hCCR4-hCCR8 (human, UniProt P51685 1-355); assay: flow cytometry, transfected Expi293 cells; Δ = significantly reduced vs hCCR8
T2 construct: chimera on Expi293 cells; hCCR8 ranges derived; also called loop2-human CCR4-substituted human CCR8

hCCR8 (Y17A) = hCCR8 (Y17A) (human, UniProt P51685 1-355); assay: flow cytometry, transfected Expi293 cells
Sequence of hCCR8 (Y17A) (P51685 whole entry Y17A): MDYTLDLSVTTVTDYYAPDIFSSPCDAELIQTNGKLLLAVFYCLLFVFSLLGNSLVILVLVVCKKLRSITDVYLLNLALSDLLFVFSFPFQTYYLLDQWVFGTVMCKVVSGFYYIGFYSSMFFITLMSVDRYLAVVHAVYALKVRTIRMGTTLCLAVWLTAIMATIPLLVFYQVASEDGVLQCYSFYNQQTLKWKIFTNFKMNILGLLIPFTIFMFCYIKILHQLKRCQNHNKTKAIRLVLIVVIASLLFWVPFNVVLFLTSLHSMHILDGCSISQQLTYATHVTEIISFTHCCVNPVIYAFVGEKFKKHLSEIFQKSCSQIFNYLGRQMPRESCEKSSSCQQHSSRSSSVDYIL

N-ter hCCR4-hCCR8 = biological target: T3, N-ter hCCR4-hCCR8 (human); assay: flow cytometry, transfected Expi293 cells
T3 construct: chimera on Expi293 cells; remaining hCCR8 ranges derived from the stated swapped ranges and the 355-residue length; also called N-terminal region human CCR4-substituted human CCR8
T3 chain: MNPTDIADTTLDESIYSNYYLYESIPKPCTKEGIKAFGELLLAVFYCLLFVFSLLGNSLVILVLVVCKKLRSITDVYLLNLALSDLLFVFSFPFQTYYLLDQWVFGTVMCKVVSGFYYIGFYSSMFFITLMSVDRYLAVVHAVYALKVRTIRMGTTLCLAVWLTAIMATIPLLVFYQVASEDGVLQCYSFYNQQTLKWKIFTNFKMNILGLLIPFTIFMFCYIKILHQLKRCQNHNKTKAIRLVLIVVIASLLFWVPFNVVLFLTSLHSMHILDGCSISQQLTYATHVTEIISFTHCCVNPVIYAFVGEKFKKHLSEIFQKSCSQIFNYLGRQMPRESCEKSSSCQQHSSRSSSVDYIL

mouse CCR8 = biological target: T4, mouse CCR8 (mouse, UniProt P56484 1-353); assay: flow cytometry, transfected Expi293 cells
T4 construct: also called mCCR8
T4 sequence: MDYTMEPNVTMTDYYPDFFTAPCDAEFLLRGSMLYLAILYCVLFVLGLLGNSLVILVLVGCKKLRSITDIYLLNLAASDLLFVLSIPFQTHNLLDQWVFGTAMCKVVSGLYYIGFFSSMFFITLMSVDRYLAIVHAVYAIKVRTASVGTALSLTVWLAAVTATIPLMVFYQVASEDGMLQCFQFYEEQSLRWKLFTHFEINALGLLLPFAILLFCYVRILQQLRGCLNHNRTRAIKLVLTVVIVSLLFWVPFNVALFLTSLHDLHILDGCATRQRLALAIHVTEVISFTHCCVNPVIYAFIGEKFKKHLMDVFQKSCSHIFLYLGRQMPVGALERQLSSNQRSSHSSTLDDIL

loop1 hCCR4-hCCR8 [3] = biological target: T5, loop1 hCCR4-hCCR8 (human, UniProt P51685 1-355); assay: flow cytometry, transfected Expi293 cells
T5 construct: chimera on Expi293 cells; hCCR8 ranges derived; also called loop 1-human CCR4-substituted human CCR8

human CCR4 = biological target: T6, human CCR4 (human, UniProt P51679 1-360); assay: flow cytometry, transfected Expi293 cells
T6 construct: also called hCCR4
T6 sequence: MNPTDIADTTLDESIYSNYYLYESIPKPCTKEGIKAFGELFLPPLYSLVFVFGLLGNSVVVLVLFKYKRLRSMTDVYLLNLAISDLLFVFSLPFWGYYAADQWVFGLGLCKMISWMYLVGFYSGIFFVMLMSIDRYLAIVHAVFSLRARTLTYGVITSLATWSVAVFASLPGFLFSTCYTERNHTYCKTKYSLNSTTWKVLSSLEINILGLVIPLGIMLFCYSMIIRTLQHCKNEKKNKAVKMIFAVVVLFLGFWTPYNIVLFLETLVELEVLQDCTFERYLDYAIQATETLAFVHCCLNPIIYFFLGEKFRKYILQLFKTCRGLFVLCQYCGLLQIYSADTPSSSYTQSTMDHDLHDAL

human CCR8 [4] = biological target: T1, human CCR8; assay: cell-based or functional assay; remark: listed apart in the source
hCCR8 (L181A) = hCCR8 (L181A) (human, UniProt P51685 1-355); assay: flow cytometry, transfected Expi293 cells
Procedure: (§1) In addition to the chimeras of human CCR4 and the point mutants at the N-terminal region of human CCR8 produced in Example 3, binding evaluation was also performed for point mutants at loop1 and loop2 regions of human CCR8. […] After reacting at room temperature for 3 hours, it was reacted with Alexa488-labeled Anti-human IgG antibody (Thermo Fisher Scientific) and flow cytometry analysis was performed.
(§2) In comparison to human CCR8, a mutant having binding activity of 70% or less was indicated as Δ and a mutant having binding activity of 20% or less was indicated as x.

hCCR8 (I20A) = biological target: T7, hCCR8 (I20A) (human, UniProt P51685 1-355); assay: flow cytometry, transfected Expi293 cells
T7 construct: also called hCCR8 (120A)
Procedure: as §1, §2

hCCR8 (L5A) = biological target: T8, hCCR8 (L5A) (human, UniProt P51685 1-355); assay: flow cytometry, transfected Expi293 cells
T8 construct: also called hCCR8 (LSA)
Procedure: as §1, §2

hCCR8 (D97A) = hCCR8 (D97A) (human, UniProt P51685 1-355); assay: flow cytometry, transfected Expi293 cells
Procedure: as §1, §2

hCCR8 (T32A) = biological target: T9, hCCR8 (T32A) (human, UniProt P51685 1-355); assay: flow cytometry, transfected Expi293 cells
T9 construct: also called hCCR8 (132A)
Procedure: as §1, §2

hCCR8 (K35A) = hCCR8 (K35A) (human, UniProt P51685 1-355); assay: flow cytometry, transfected Expi293 cells
Procedure: as §1, §2

hCCR8 (N188A) = hCCR8 (N188A) (human, UniProt P51685 1-355); assay: flow cytometry, transfected Expi293 cells
Procedure: as §1, §2

loop1 hCCR4-hCCR8 [5] = biological target: T5, loop1 hCCR4-hCCR8; assay: flow cytometry, transfected Expi293 cells; remark: listed apart in the source
Procedure: as §1, §2

hCCR8 (V180A) = hCCR8 (V180A) (human, UniProt P51685 1-355); assay: flow cytometry, transfected Expi293 cells
Procedure: as §1, §2

loop2 hCCR4-hCCR8 [6] = biological target: T2, loop2 hCCR4-hCCR8; assay: flow cytometry, transfected Expi293 cells
Procedure: as §1, §2

hCCR8 (S22A) = hCCR8 (S22A) (human, UniProt P51685 1-355); assay: flow cytometry, transfected Expi293 cells
Procedure: as §1, §2

human CCR8 [7] = biological target: T1, human CCR8; assay: cell-based or functional assay; remark: listed apart in the source
human CCR8 [8] = biological target: T1, human CCR8; assay: cell-based or functional assay; remark: listed apart in the source
human CCR8 [9] = biological target: T1, human CCR8; assay: cell-based or functional assay; remark: listed apart in the source

T1 sequence (P51685 whole entry): as the sequence (P51685 whole entry Y17A) above, with A17Y counted along it

IC50 (nM), Ca2+ influx by 200 nM hCCL1 (human CCR8 [1]): 3.03 nM | binding result (loop2 hCCR4-hCCR8 [2]): binds | binding result (hCCR8 (Y17A)): no binding | binding result (N-ter hCCR4-hCCR8): no binding | binding result (mouse CCR8): no binding | binding result (loop1 hCCR4-hCCR8 [3]): no binding | binding result (human CCR4): no binding | Neutralizing Activity IC50 (nM), Ca2+ influx by 100 nM hCCL1 (human CCR8 [4]): 1.56 nM
B1: 8F7 (antibody, V domains shown)
VH: EVQLVESGGRLVQPKRSLKLSCAASGFTFNPYAMYWIRQAPGQGLEWVARIRSKSNNYATYYADSVKDRFTISRDDSQSMLYLQMNNLKTEDTAMYYCVRGHQGTMDYWGQGTSVTVSS
VL: DIVMTQAAPSVPVTPGESVSISCRSSKSLLHSNGNTYLYWFLQRPGQSPQLLTYRMSNLASGVPDRFSGSGSGTAFTLRISRVEAEDVGVYYCMQHLEYPFTFGGGTKLEIKR
notes: mouse hybridoma antibody

binding activity in comparison to human CCR8 (hCCR8 (L181A)): ≤ 70% | binding activity in comparison to human CCR8 (hCCR8 (I20A)): ≤ 70% | binding activity in comparison to human CCR8 (hCCR8 (L5A)): ≤ 70% | binding activity in comparison to human CCR8 (hCCR8 (D97A)): ≤ 70% | binding activity in comparison to human CCR8 (hCCR8 (T32A)): ≤ 70% | binding activity in comparison to human CCR8 (hCCR8 (K35A)): ≤ 70% | binding activity in comparison to human CCR8 (hCCR8 (N188A)): ≤ 70% | binding activity in comparison to human CCR8 (loop1 hCCR4-hCCR8 [5]): ≤ 70% | binding activity in comparison to human CCR8 (hCCR8 (V180A)): ≤ 70% | binding activity in comparison to human CCR8 (loop2 hCCR4-hCCR8 [6]): ≤ 70% | binding activity in comparison to human CCR8 (hCCR8 (S22A)): ≤ 70% | IC50 ratio (WT IC50/mutant IC50) (human CCR8 [7]): 1 ratio | IC50 (nM), Ca2+ influx by 200 nM hCCL1 (human CCR8 [8]): 0.15 nM
B2: h10A11 (IGKV4-1/IGHV3-15 T94R) (antibody, V domains shown)
VH: EVQLVESGGALVKPGGSLRLSCAASGFTFSTYALYWVRQAPGKGLEWVGRIRSKSNNYATYYADSVKDRFTISRDDSKNTLYLQMNSLKTEDTAVYYCTRARFYYSDYGYAMDYWGQGTLVTVSS
VL: DIVMTQSPDSLAVSLGERATINCRSSKSLLHSNGNTYLYWYQQKPGQPPKLLIYRMSNLASGVPDRFSGSGSGTDFTLTISSLQAEDVAVYYCMQHLEYPLTFGQGTKLEIKR
notes: humanized; detected with anti-human IgG; also called humanized 10A11 antibody (light chain variable region: IGKV4-1/heavy chain variable region: IGHV3-15 T94R)

IC50 ratio (WT IC50/mutant IC50) (human CCR8 [9]): 1 ratio | IC50 (nM), Ca2+ influx by 200 nM hCCL1 (human CCR8 [8]): 0.17 nM
B3: h10A11 (IGKV4-1/IGHV3-73) (antibody, V domains shown)
VH: B2 VH with A10G, K13Q, R19K, T28A, S30N, P41S, L81A
VL: B2 VL
